# Tests used:
# HeLa Kyoto [1] = test: solubility in G1/S (NP-40 vs SDS abundance) (log2 ratio); higher = more soluble; conditions: cell cycle stage: G1/S
# HeLa Kyoto [2] = test: solubility change mitosis vs G1/S (difference of NP-40 vs SDS log2 ratios) (log2 ratio difference); higher = more soluble in mitosis
# 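Wherever solubility change mitosis vs G1/S (difference of NP-40 vs SDS log2 ratios) is given: synchronized HeLa Kyoto cells (double thymidine block for G1/S, nocodazole release for mitosis), protein amounts in NP-40 versus SDS lysates quantified by mass spectrometry, three biological replicates.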
# 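Wherever solubility in G1/S (NP-40 vs SDS abundance) is given: HeLa Kyoto cells arrested at G1/S by double thymidine block, proteins quantified by TMT10plex mass spectrometry in mild NP-40 versus SDS extracts, three biological replicates.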
# MAST2, sequence (chain, as listed by the source): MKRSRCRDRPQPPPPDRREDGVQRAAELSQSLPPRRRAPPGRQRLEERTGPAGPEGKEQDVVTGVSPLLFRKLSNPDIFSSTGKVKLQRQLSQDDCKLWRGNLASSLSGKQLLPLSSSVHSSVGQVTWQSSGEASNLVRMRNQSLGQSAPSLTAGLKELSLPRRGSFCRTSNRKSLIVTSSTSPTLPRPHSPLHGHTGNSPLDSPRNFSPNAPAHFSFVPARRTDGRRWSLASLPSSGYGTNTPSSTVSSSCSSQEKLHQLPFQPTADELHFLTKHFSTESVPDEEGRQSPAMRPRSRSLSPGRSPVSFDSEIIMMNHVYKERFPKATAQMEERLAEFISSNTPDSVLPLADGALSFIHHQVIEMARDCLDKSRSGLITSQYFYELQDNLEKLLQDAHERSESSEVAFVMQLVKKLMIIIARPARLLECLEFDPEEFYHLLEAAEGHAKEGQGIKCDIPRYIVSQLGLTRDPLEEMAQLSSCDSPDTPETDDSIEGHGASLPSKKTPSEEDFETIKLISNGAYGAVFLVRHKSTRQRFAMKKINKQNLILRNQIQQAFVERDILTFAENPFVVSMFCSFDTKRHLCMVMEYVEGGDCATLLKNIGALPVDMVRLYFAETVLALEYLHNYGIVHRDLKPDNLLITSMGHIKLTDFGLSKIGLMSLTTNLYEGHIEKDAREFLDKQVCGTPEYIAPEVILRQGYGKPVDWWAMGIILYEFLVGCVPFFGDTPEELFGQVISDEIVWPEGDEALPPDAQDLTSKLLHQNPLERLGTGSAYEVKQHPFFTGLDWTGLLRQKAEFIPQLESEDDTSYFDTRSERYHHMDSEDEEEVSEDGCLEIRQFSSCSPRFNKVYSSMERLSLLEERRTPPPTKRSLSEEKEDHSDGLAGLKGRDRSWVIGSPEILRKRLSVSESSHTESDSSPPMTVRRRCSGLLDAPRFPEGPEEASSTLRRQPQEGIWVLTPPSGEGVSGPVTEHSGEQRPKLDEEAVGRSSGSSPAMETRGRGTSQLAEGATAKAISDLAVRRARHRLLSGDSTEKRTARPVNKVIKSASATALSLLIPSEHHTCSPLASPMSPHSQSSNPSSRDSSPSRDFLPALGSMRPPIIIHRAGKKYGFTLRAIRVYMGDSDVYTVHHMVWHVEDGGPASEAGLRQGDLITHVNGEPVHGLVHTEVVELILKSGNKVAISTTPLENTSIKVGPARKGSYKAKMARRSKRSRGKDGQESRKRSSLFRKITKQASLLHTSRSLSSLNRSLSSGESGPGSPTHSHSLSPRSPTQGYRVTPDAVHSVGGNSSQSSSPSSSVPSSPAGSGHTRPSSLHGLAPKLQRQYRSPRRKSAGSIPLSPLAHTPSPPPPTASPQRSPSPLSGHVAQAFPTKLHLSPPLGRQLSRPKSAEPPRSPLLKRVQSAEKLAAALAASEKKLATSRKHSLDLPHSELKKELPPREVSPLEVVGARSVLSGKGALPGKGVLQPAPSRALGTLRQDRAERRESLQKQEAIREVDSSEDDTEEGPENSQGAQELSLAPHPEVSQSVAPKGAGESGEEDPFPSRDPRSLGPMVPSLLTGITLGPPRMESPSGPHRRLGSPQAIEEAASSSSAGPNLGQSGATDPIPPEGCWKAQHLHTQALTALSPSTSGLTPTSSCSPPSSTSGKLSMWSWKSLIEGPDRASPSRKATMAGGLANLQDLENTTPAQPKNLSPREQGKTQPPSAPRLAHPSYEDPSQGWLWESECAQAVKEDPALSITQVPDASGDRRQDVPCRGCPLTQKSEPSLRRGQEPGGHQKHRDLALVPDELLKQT
Substance,solubility in G1/S (log2) (HeLa Kyoto [1]),solubility change mitosis (log2) (HeLa Kyoto [2])
MAREPRKNAALDAQSAEDQTGLLTVKVEKEEASALTAEVRAPCSPARGPERSRQRFRGFRYPEAAGPREALSRLRELCGQWLQPEMHSKEQILELLVLEQFLTILPGNLQSWVREQHPESGEEVVVLLEYLERQLDEPAPQVPVGDQGQELLCCKMALLTQTQGSQSSQCQPMKALFKHESLGSQPLHDRVLQVPGLAQGGCCREDAMVASRLTPGSQGLLKMEDVALTLTPGWTQLDSSQVNLYRDEKQENHSSLVSLGGEIQTKSRDLPPVKKLPEKEHGKICHLREDIAQIPTHAEAGEQEGRLQRKQKNAIGSRRHYCHECGKSFAQSSGLTKHRRIHTGEKPYECEDCGKTFIGSSALVIHQRVHTGEKPYECEECGKVFSHSSNLIKHQRTHTGEKPYECDDCGKTFSQSCSLLEHHKIHTGEKPYQCNMCGKAFRRNSHLLRHQRIHGDKNVQNPEHGESWESQGRTESQWENTEAPVSYKCNECERSFTRNRSLIEHQKIHTGEKPYQCDTCGKGFTRTSYLVQHQRSHVGKKTLSQ [ZKSCAN4],-0.299,0.361
MARISFSYLCPASWYFTVPTVSPFLRQRVAFLGLFFISCLLLLMLIIDFRHWSASLPRDRQYERYLARVGELEATDTEDPNLNYGLVVDCGSSGSRIFVYFWPRHNGNPHDLLDIKQMRDRNSQPVVKKIKPGISAMADTPEHASDYLRPLLSFAAAHVPVKKHKETPLYILCTAGMRLLPERKQLAILADLVKDLPLEFDFLFSQSQAEVISGKQEGVYAWIGINFVLGRFDHEDESDAEATQELAAGRRRTVGILDMGGASLQIAYEVPTSTSVLPAKQEEAAKILLAEFNLGCDVQHTEHVYRVYVTTFLGFGGNFARQRYEDLVLNETLNKNRLLGQKTGLSPDNPFLDPCLPVGLTDVVERNSQVLHVRGRGDWVSCGAMLSPLLARSNTSQASLNGIYQSPIDFNNSEFYGFSEFFYCTEDVLRIGGRYHGPTFAKAAQDYCGMAWSVLTQRFKNGLFSSHADEHRLKYQCFKSAWMYQVLHEGFHFPYDYPNLRTAQLVYDREVQWTLGAILYKTRFLPLRDLRQEGVRQAHGSWFRLSFVYNHYLFFACILVVLLAIFLYLLRLRRIHHRQTRASAPLDLLWLEEVVPMMGVQVGP [ENTPD7],-0.358,0.145
MARKSNLPVLLVPFLLCQALVRCSSPLPLVVNTWPFKNATEAAWRALASGGSALDAVESGCAMCEREQCDGSVGFGGSPDELGETTLDAMIMDGTTMDVGAVGDLRRIKNAIGVARKVLEHTTHTLLVGESATTFAQSMGFINEDLSTTASQALHSDWLARNCQPNYWRNVIPDPSKYCGPYKPPGILKQDIPIHKETEDDRGHDTIGMVVIHKTGHIAAGTSTNGIKFKIHGRVGDSPIPGAGAYADDTAGAAAATGNGDILMRFLPSYQAVEYMRRGEDPTIACQKVISRIQKHFPEFFGAVICANVTGSYGAACNKLSTFTQFSFMVYNSEKNQPTEEKVDCI,0.0983,-0.136
MASEAPSPPRSPPPPTSPEPELAQLRRKVEKLERELRSCKRQVREIEKLLHHTERLYQNAESNNQELRTQVEELSKILQRGRNEDNKKSDVEVQTENHAPWSISDYFYQTYYNDVSLPNKVTELSDQQDQAIETSILNSKDHLQVENDAYPGTDRTENVKYRQVDHFASNSQEPASALATEDTSLEGSSLAESLRAAAEAAVSQTGFSYDENTGLYFDHSTGFYYDSENQLYYDPSTGIYYYCDVESGRYQFHSRVDLQPYPTSSTKQSKDKKLKKKRKDPDSSATNEEKDLNSEDQKAFSVEHTSCNEEENFANMKKKAKIGIHHKNSPPKVTVPTSGNTIESPLHENISNSTSFKDEKIMETDSEPEEGEITDSQTEDSYDEAITSEGNVTAEDSEDEDEDKIWPPCIRVIVIRSPVLQIGSLFIITAVNPATIGREKDMEHTLRIPEVGVSKFHAEIYFDHDLQSYVLVDQGSQNGTIVNGKQILQPKTKCDPYVLEHGDEVKIGETVLSFHIHPGSDTCDGCEPGQVRAHLRLDKKDESFVGPTLSKEEKELERRKELKKIRVKYGLQNTEYEDEKTLKNPKYKDRAGKRREQVGSEGTFQRDDAPASVHSEITDSNKGRKMLEKMGWKKGEGLGKDGGGMKTPIQLQLRRTHAGLGTGKPSSFEDVHLLQNKNKKNWDKARERFTENFPETKPQKDDPGTMPWVKGTLE [AGGF1],-0.292,-0.0218
MASGDLYEVERIVDKRKNKKGKWEYLIRWKGYGSTEDTWEPEHHLLHCEEFIDEFNGLHMSKDKRIKSGKQSSTSKLLRDSRGPSVEKLSHRPSDPGKSKGTSHKRKRINPPLAKPKKGYSGKPSSGGDRATKTVSYRTTPSGLQIMPLKKSQNGMENGDAGSEKDERHFGNGSHQPGLDLNDHVGEQDMGECDVNHATLAENGLGSALTNGGLNLHSPVKRKLEAEKDYVFDKRLRYSVRQNESNCRFRDIVVRKEEGFTHILLSSQTSDNNALTPEIMKEVRRALCNAATDDSKLLLLSAVGSVFCSGLDYSYLIGRLSSDRRKESTRIAEAIRDFVKAFIQFKKPIVVAINGPALGLGASILPLCDIVWASEKAWFQTPYATIRLTPAGCSSYTFPQILGVALANEMLFCGRKLTAQEACSRGLVSQVFWPTTFSQEVMLRVKEMASCSAVVLEESKCLVRSFLKSVLEDVNEKECLMLKQLWSSSKGLDSLFSYLQDKIYEV [CDYL2],-1.07,0.436
MASKKLGADFHGTFSYLDDVPFKTGDKFKTPAKVGLPIGFSLPDCLQVVREVQYDFSLEKKTIEWAEEIKKIEEAEREAECKIAEAEAKVNSKSGPEGDSKMSFSKTHSTATMPPPINPILASLQHNSILTPTRVSSSATKQKVLSPPHIKADFNLADFECEEDPFDNLELKTIDEKEELRNILVGTTGPIMAQLLDNNLPRGGSGSVLQDEEVLASLERATLDFKPLHKPNGFITLPQLGNCEKMSLSSKVSLPPIPAVSNIKSLSFPKLDSDDSNQKTAKLASTFHSTSCLRNGTFQNSLKPSTQSSASELNGHHTLGLSALNLDSGTEMPALTSSQMPSLSVLSVCTEESSPPNTGPTVTPPNFSVSQVPNMPSCPQAYSELQMLSPSERQCVETVVNMGYSYECVLRAMKKKGENIEQILDYLFAHGQLCEKGFDPLLVEEALEMHQCSEEKMMEFLQLMSKFKEMGFELKDIKEVLLLHNNDQDNALEDLMARAGAS [UBAP1],0.435,0.147
MASKRKSTTPCMVRTSQVVEQDVPEEVDRAKEKGIGTPQPDVAKDSWAAELENSSKENEVIEVKSMGESQSKKLQGGYECKYCPYSTQNLNEFTEHVDMQHPNVILNPLYVCAECNFTTKKYDSLSDHNSKFHPGEANFKLKLIKRNNQTVLEQSIETTNHVVSITTSGPGTGDSDSGISVSKTPIMKPGKPKADAKKVPKKPEEITPENHVEGTARLVTDTAEILSRLGGVELLQDTLGHVMPSVQLPPNINLVPKVPVPLNTTKYNSALDTNATMINSFNKFPYPTQAELSWLTAASKHPEEHIRIWFATQRLKHGISWSPEEVEEARKKMFNGTIQSVPPTITVLPAQLAPTKVTQPILQTALPCQILGQTSLVLTQVTSGSTTVSCSPITLAVAGVTNHGQKRPLVTPQAAPEPKRPHIAQVPEPPPKVANPPLTPASDRKKTKEQIAHLKASFLQSQFPDDAEVYRLIEVTGLARSEIKKWFSDHRYRCQRGIVHITSESLAKDQLAIAASRHGRTYHAYPDFAPQKFKEKTQGQVKILEDSFLKSSFPTQAELDRLRVETKLSRREIDSWFSERRKLRDSMEQAVLDSMGSGKKGQDVGAPNGALSRLDQLSGAQLTSSLPSPSPAIAKSQEQVHLLRSTFARTQWPTPQEYDQLAAKTGLVRTEIVRWFKENRCLLKTGTVKWMEQYQHQPMADDHGYDAVARKATKPMAESPKNGGDVVPQYYKDPKKLCEEDLEKLVTRVKVGSEPAKDCLPAKPSEATSDRSEGSSRDGQGSDENEESSVVDYVEVTVGEEDAISDRSDSWSQAAAEGVSELAESDSDCVPAEAGQA [ZHX2],0.134,-0.0666
MASLGPAAAGEQASGAEAEPGPAGPPPPPSPSSLGPLLPLQREPLYNWQATKASLKERFAFLFNSELLSDVRFVLGKGRGAAAAGGPQRIPAHRFVLAAGSAVFDAMFNGGMATTSAEIELPDVEPAAFLALLRFLYSDEVQIGPETVMTTLYTAKKYAVPALEAHCVEFLTKHLRADNAFMLLTQARLFDEPQLASLCLDTIDKSTMDAISAEGFTDIDIDTLCAVLERDTLSIRESRLFGAVVRWAEAECQRQQLPVTFGNKQKVLGKALSLIRFPLMTIEEFAAGPAQSGILSDREVVNLFLHFTVNPKPRVEYIDRPRCCLRGKECCINRFQQVESRWGYSGTSDRIRFTVNRRISIVGFGLYGSIHGPTDYQVNIQIIEYEKKQTLGQNDTGFSCDGTANTFRVMFKEPIEILPNVCYTACATLKGPDSHYGTKGLKKVVHETPAASKTVFFFFSSPGNNNGTSIEDGQIPEIIFYT [BTBD1],-0.225,0.0289
MAST2,0.087,-0.172
MATAPGPAGIAMGSVGSLLERQDFSPEELRAALAGSRGSRQPDGLLRKGLGQREFLSYLHLPKKDSKSTKNTKRAPRNEPADYATLYYREHSRAGDFSKTSLPERGRFDKCRIRPSVFKPTAGNGKGFLSMQSLASHKGQKLWRSNGSLHTLACHPPLSPGPRASQARAQLLHALSLDEGGPEPEPSLSDSSSGGSFGRSPGTGPSPFSSSLGHLNHLGGSLDRASQGPKEAGPPAVLSCLPEPPPPYEFSCSSAEEMGAVLPETCEELKRGLGDEDGSNPFTQVLEERQRLWLAELKRLYVERLHEVTQKAERSERNLQLQLFMAQQEQRRLRKELRAQQGLAPEPRAPGTLPEADPSARPEEEARWEVCQKTAEISLLKQQLREAQAELAQKLAEIFSLKTQLRGSRAQAQAQDAELVRLREAVRSLQEQAPREEAPGSCETDDCKSRGLLGEAGGSEARDSAEQLRAELLQERLRGQEQALRFEQERRTWQEEKERVLRYQREIQGGYMDMYRRNQALEQELRALREPPTPWSPRLESSKI [N4BP3],0.203,0.334
MATPGSEPQPFVPALSVATLHPLHHPHHHHHHHQHHGGTGAPGGAGGGGGGSGGFNLPLNRGLERALEEAANSGGLNLSARKLKEFPRTAAPGHDLSDTVQADLSKNRLVEVPMELCHFVSLEILNLYHNCIRVIPEAIVNLQMLTYLNLSRNQLSALPACLCGLPLKVLIASNNKLGSLPEEIGQLKQLMELDVSCNEITALPQQIGQLKSLRELNVRRNYLKVLPQELVDLSLVKFDFSCNKVLVIPICFREMKQLQVLLLENNPLQSPPAQICTKGKVHIFKYLSIQACQIKTADSLYLHTMERPHLHQHVEDGKKDSDSGVGSDNGDKRLSATEPSDEDTVSLNVPMSNIMEEEQIIKEDSCHRLSPVKGEFHQEFQPEPSLLGDSTNSGEERDQFTDRADGLHSEFMNYKARAEDCEELLRIEEDVHWQTEGIISSSKDQDMDIAMIEQLREAVDLLQDPNGLSTDITERSVLNLYPMGSAEALELQDSALNGQIQLETSPVCEVQSDLTLQSNGSQYSPNEIRENSPAVSPTTNSTAPFGLKPRSVFLRPQRNLESIDPQFTIRRKMEQMREEKELVEQLRESIEMRLKVSLHEDLGAALMDGVVLCHLVNHIRPRSVASIHVPSPAVPKLSMAKCRRNVENFLEACRKLGVPEADLCSPCDILQLDFRHIRKTVDTLLALGEKAPPPTSALRSRDLIGFCLVHILFIVLVYITYHWNALSA [LRCH1],-0.0599,-0.186

# Reference: the supplement of paper PMC5998384
